Source: the DeepSol protein solubility set

Assay: soluble on expression in E. coli; label from the status in PepcDB or PDB records
For “MSTVKEAVDVEVPVHTAYNQWTQFEEFPHFMEGVEEVRQLDERHNHWTTQVSGVKREFDTEIVDQLPDERITWRTTTGDTNQKGTVRFQRLDDTHTRVELVMDVDPTGVAEKTGDMLGVIDRRVKGDMQRFKEYIEKRGGESGAWRGRIRPGELEHHHHHH”, the “soluble on expression in E. coli” value was “soluble”. With “AFYINVVPDMVGGRLSSHDRDVLGLARQLAGAEGAVLAVVFGEHKETAFDSAGVDRLLLLDGNESDGYSPEQRVQGLRAVDNQFGPQRWVFPDSRTGGGELGRRFAASLGERPATRVWQVKGEHCTSRAGA” the “soluble on expression in E. coli” value was “not soluble”. In the case of “MSLIAVKPKKGHLLVAEPSITGDLSFNRSVVLLADHNCEGSVGFILNKPLGYTINDLIPEISARFKVYNGGPIEQDNLYFIHNIPQLIPNSIEIAEGIYWGGCFDSTRDLINQGKITQNNIRFFLGYSGWDAAQLQEELESNSWIISENNLHNKIIGKSSTDLWREKIKEQGGDYLIWSNAPENPILNEGHHHHHH”, the “soluble on expression in E. coli” value is reported as “soluble”. In the case of “MSLADIPYGTDYPDAPWIDRDGHVLIDDGGKPTQVHRGQARIAYRLAERYQDKLLHVAGIGWHSWDGRRWAADDRGEAKRAVLAELRQALSDSLNDKELRADVRKCESASGVAGVLDLAAALVPFAATVADLDSDPHLLNVANGTLDLHTLKLRPHAPADRITKICRGAYQSDTESPLWQAFLTRVLPDEGVRGFVQRLAGVGLLGTVREHVLAILIGVGANGKSVFDKAIRYALGDYACTAEPDLFMHRENAHPTGEMDLRGVRWVAVSESEKDRRLAESTIKRLTGGDTIRARKMRQDFVEFTPSHTPLLITNHLPRVPGDDTAIWRRIRVVPFEVVIPADEQDRELDARLQLEADSILSWAVAGWSDYQRIGLSQPDAVLAATSNYREDSDTIKRFIDDECVTSSPVLKATTTHLFEAWQRWRVQEGVPEISRKAFGQSLDTHGYPVTDKARDGRWRAGIAVRGADDFDEGHHHHHH”, the “soluble on expression in E. coli” value is reported as “soluble”. In the case of “VTPSEGNAPLPELHNTVVVAAFEGWNDAGDAAGDAVAHLAASWQALPIVEIDDEAYYDYQVNRPVIRQVDGVTRELQWPAMRISHCRPPGSDRDVVLMCGVEPNMRWRTFCDELLAVIDKLNVDTVVILGALLADTPHTRPVPVSGAAYSAASARQFGLQETRYEGPTGIAGVFQSACVGAGIPAVTFWAAVPHYVSHPPNPKATIALLRRVEDVLDVEVPLADLPAQAEAWEREITETIAEDHELAEYVQTLEQHGDAAVDMNEALGNIDGDALAAEFERYLRRRRPGFGR”, the “soluble on expression in E. coli” value is reported as “soluble”. In the case of “MAHHHHHHMPSMDSLRTAVDNAPLLVNLLRLIRNARSPNYKDHEKGPVTFHFGGLSMRDTGSYEAAEELWRQSSWSSGALAPNAAGPFRGPLHLVVYLNHSPVEVWTLQDYREPATDHSVPRDFEQLEALNTLVRVLFAHLRCQDIYGVVLQSCVTATDDANNHFPASPNGNVSSPPHFPPPRNASLSRARTPHSPANHVSLRLFRSAEDCPTMPVHARRQYLWSSDDFVRVDVTMDRTWRHHSWVQPGTQAASPVLAAGDRERDTAVCAAGERSSPIRTASPGLRHFGSEGDTRSQSISPEAMGSLDKSSLPTPYLAPAATLALSSHLSRSPRTNLSPLMPGSRLSPAQGVSEFALPPADVSSPFDCDRSRQSRSSPPIMHSCVFASSHPAGGGGATYTAAVGAVNQVEDAVWLSNAEHVRRMGTLVCSRKQSPSASSSPVMGKKPRNSFISQKHEMGSLVPSISIGALSGIGFDRRLLSSDVDLEDLAAETASSGSSASVPNSAAMEQLVSLLGLCSKVKLQHVPSAPFGDLVLSLNLREVP”, the “soluble on expression in E. coli” value is reported as “not soluble”. In the case of “MSLAACSGGGNSSQGSGGSKFAFWDMPWGSPGPDYLAAGKEISAAFSGGSATYQSISWDGWLQTFSSAIAAGTGPAISTGGAFQSLQYYVQDAVHPADGVIAKLRSKGQLDDFLPGTLDVFKYKGAYTALPWNVDSRLLWYRKSLLEKAGVEEPRSWDDLYRVGVALKKNDVYGMVASGGAGGNAYQTFLSFVFNNGGGLFDKDGEPQCVTDANVEAVEFLMKLAKDGIMDPGSVSYTVANLNDQFSSGAAALSILPPDIANSFEDPRLKADITLGSPLTSPNGTKGTMAYTSDLILYTGDWDTDVVEDFAVYYLDAMSAYWKKGVLNKVPVRQSILDLPEVQAQPNLVKATKEWLPVGKSLTQLAGEPFPEINAVDGGQAITQWAQQVIQAKSSGEQTLRTLQDGIEKVMEGHHHITTDPNSSSVDKLAAALEHHHHHH”, the “soluble on expression in E. coli” value is reported as “soluble”. With “MGSDKIHHHHHHMNVENQTPNVDHQEIAKFEAIASRWWDLEGEFKPLHRINPLRLGYISQRAEGLFGKKVLDVGCGGGILAESMAREGADVTGLDMGAEPLQVARLHALESGVTVDYVQETVEAHADAHSGLYDVVTCMEMLEHVPDPQSVVQACAKLVKPGGHVFFSTINRNAKAWMMAVIGAEYILKMVPRGTHDIKKFIRPAELMRWVDDTPLRERHITGLHYNLLTDRFKLGPNVDVNYMLHTSHDKQC” the “soluble on expression in E. coli” value was “not soluble”. In the case of “MVSCQGTRPCIVNLLTMPSEDKLGEEISTRVINEYSKLKSACRPIIRPSGIREWTILAGVAAINRDGGANKIEILSIATGVKALPDSELQRSEGKILHDCHAEILALRGANTVLLNRIQNYNPSSGDKFIQHNDEIPARFNLKENWELALYISRLPCGDASMSFLNDNCKNDDFIKIEDSDEFQYVDRSVKTILRGRLNFNRRNVVRTKPGRYDSNITLSKSCSDKLLMKQRSSVLNCLNYELFEKPVFLKYIVIPNLEDETKHHLEQSFHTRLPNLDNEIKFLNCLKPFYDDKLDEEDVPGLMCSVKLFMDDFSTEEAILNGVRNGFYTKSSKPLRKHCQSQVSRFAQWELFKKIRPEYEGISYLEFKSRQKKRSQLIIAIKNILSPDGWIPTRTDDVK”, the “soluble on expression in E. coli” value is reported as “not soluble”. For “MKRRRLLQSLLAGLALQPFLAASANVRIRQARAWNSSESWRLVLELDGPPRYRTFSLQAPERLILDLPDAQLLATLSELPLDGPVRAIRSGQLGGGGTRIVLDLRQAVRPRSFALEPQAGKGHRLVLDLYPQALAAPPEPMLALARPLPSTGRDILVVVDAGHGGKDPGAVGSKGEREKDVALAIARLLARRIDREKGFKARLVRNGDVFVPLRKRPEVARRYNADMFVSVHADAAPRLTASGASVYALSEHGASSTMARWMAERENGADLIGNSGNLPLQGRDKVLAGVILDMALSSTIASSLDLGHSVLGQLSDVTALHQKRVEQAGFAVLKSPDIPSILVETGFISNRGDCRRLMDERHRQRLAEAIFAGVQGYFRQRPPAGSYLAALSAQPPG”, the “soluble on expression in E. coli” value was “not soluble”. With “MFCKRFIALVTMLTLVCSMLLPYSNASAETGSALNIEAGAAILVEANSGKILYQKNADELLSIASMTKMMSEYLVHEAVDKGKFKWDQKIKVSEYAYKVSQDASLSNVALENGGSYTVKELYEAMAIFSANGATIALAEAIAGKEVDFVKMMNDKSKELGLKNYKFVNSTGLTNKDLKGMHPEGTTADEENKMSAKDVATLAQHLIKDYPKVLDTAKIPKKEFRPEKEKFAMSNWNWMLKGLVKEYDGVDGLKTGSTPEAGDCFTGTVERNGMRFISVVIKTSSHTARFDETKKLYDYGFANFEMKQMYKKGSSVKGQETVRVENAKDKDVAVQTKQAISLPVPKGSKEVYKTELKESSKGQEAPIKKGAALGQMVITPKDTNDPGFLTGKSLQVDLVTTSEVEEANWFTRAMRGIGSFFSGIWNSAVDTVKGWF” the “soluble on expression in E. coli” value was “not soluble”. For “MGSDKIHHHHHHMNSVVNFRDIGGFPTQQGTVVKTGYFFRSGELVNVAQADQQKLVEDYQIKRIYDFRSAAETQERPDDSIQGTNYLHIDILADIQAQTASLEGMLKTVGSPDEAMDMAYKEMVLSNSGRKGYQTFFENFLSYPQEAILFHCFAGKDRTGIGAALILSALGVEHSYILEDYLKTNEQRKTANEQIIAQYQANGTPLAEIQQLETLLYVKKEYLATALQAIEKEFGSVEGYLKEGLGLPLSAKKDMLSLYTKS”, the “soluble on expression in E. coli” value was “not soluble”. In the case of “MLQLLLFLIFCSFTNASSCQDKSPYCNPNDCEVRPGYAMVYCRKTCGNCADFCEDSKFITCSAERKKDCDDMLSDYCPRLCGKCYAKLKPDSKRTKTIPVTQFKRNPAATSTTTTTTRSPSIRMKQPRMLPNGTFINPPLPKYEKLDDTTYTIPEHPTVIDYPIAHMEELMIPEPQRIWPEPEPMRIEPISVYSPYSFVPVQPQVSQPYSPWSPTLGLSSSLDSSRRAPQNYFSSYSQYPQYPDEKLNTIAPNPMQLVEPFLTPGQNDLNPKSMSSLINLLGCKDKDEVICKHVTADTCLSRPGYYLKLCPVTCKNCSGYQCIDSIKIDCAEVKAQGACKLSVASEYCPRTCEYCNPPSDMAKTMSDCKDELETCEQLAESGACQHDFR”, the “soluble on expression in E. coli” value is reported as “not soluble”. For “MDNEEYYKILGVAKSASQDEIKHAYRKMSKKYHPDLNHQPGAEDKYKQVQEAYETLGDPQKRAAYDQYGKAGANANNGQGGFGGFQQSGFNFNGQDFGDFSDIFSQMFGGSFNPNAPRKGRDLQYRINLTFEEAVFGKETEIKYVRQESGGNSKEHTVKVTIPAGVETGQQMRLAGQGEAGTHGGPYGDLYVEFIVGKSKDGFERQGANIYLEEPINFVQAALGDKIKVKTVHGDVELTIPAGTQTDTEFRLRGKGAPYVNSSRIGDEYVKVIVQVPKRLNEKEKKALKTYADLRGENVNPQKRRGLFG”, the “soluble on expression in E. coli” value was “not soluble”. For “MASLYLGLGFLVSMHSTKPEKADIIVILGGDDGLRVSKGGDLYKAGYAKHVLLTGIDSRYYRPNHPNWRERKLMARGVPRKHIIVDTWSETSWEEAENTSDLMDKNGWKSALVVSDPPHMLRLNKTWKKAFAGTNKRFRLVATEPSWWNPLLWWRNPISYRFVINELKKNIYYLVTYYLEHHHHHH”, the “soluble on expression in E. coli” value was “not soluble”. For “MNAFNPTQFRAQFPALADAGVYLDSAATALKPQAVIDATHQFYCLSAGNVHRSQFAQAQRLTAQYEAARAKAARLLNAPDEKSIVWTRGTTEAINMVAQCYARPRLRPGDEIIVSVAEHHANLVPWLMVAQQTGAQVIKLPLNDRRLPDVERLPELITSRSRILALGQMSNVTGGCPDLASAISAAHAAGMVVMVDGAQGAVHFPADVQQLDIDFYAFSAHKLYGPTGIGVLYGKPELLEAMSPWLGGGKMIRDVSFEGFTTQSAPWKLEAGTPNVAGVIGLSAALEWLSDIDIEQAENWSRGLATLAEDALAKRPGFRSFRCQDSSLLAFDFVGVHHGDMVTLLAEYGIALRAGQHCAQPLLAELGVTGTLRASFAPYNTQHDVDALVNAVDRALELLVD”, the “soluble on expression in E. coli” value was “not soluble”. For “MSLDNQLRPTLHYQAQNPHRRVLVTGATGYIGGRLITELLAAGFQVRATSRKKTSLQRFDWYEDVEAVEADLTDATELDTLFKDVDVVYYLVHSMGGKNVDFEEQEQRTAENVIQAADQAGIKQIVYLSGLHPRNRKIEELSKHMRSREKVAQILLAGQTPALILRAATIIGSGSASFEIIRHLTERLPRMIAPQWITNQIEPLAIRDVLHYLISAADLKDPVNRSCDIGCGKSYEFADLLRIYADVRGLKRHVNSVPLNLPMDKLSGLWISLVTPVPFQLSFPLAQSMAEDAVTEEHSIKDIISDPPDGFIEYREAVELALAAEFDRGVPTSWDRSWTVQQPWAGQPTDPEWAGKAVYEDVRTEDTDLRAAQVWPIIEGLGGVNGWYSAPLLWRLRGIADRLIGGPGLGGRRDPRHLKLGDRIDWWRVTEIDPPHRLVLTAEMKVDGGAWLILEVADKENGGCTYTQRAIFEPKGEGHHHHHH”, the “soluble on expression in E. coli” value was “soluble”. For “MGSDKIHHHHHHMTPTADIWFKDTLAAHFTRDGDQTTFSYTADYAGPPIATSLPINSEPVITRSGAIPPFFAGLLPEGRRLSSLRRNIKASADDELSLLLAVGADPVGAVAIFPHGENPQPAPPTVDFDDELDFSAALTESGIADPVALAGVQDKASARTIAVPVASDAILKLSPPEYPYLVENEAACYQLLTKNKLRIELSKVEVLHDKHGRSGLLVHRFDRTPKGKIPVEDAGQVLGIWPADKYLVSYEDIAQALTKVCASPILAMRNLAFQIAVAWLSGNGDLHAKNISIINKGRGFEISPIYDIPATAVYGDTTMALEIQGSKKDLSQKKFLKFCTSIGLPEKTAMSVANAALLATENAAETILASGNFDTRMNRDLARVLKHRRSAWGA”, the “soluble on expression in E. coli” value was “not soluble”.
